# According to FireProtDB:
# Where “and” joins values, the source holds several entries; their conditions need not be identical. Identical values can stand only once.
# B1: 3-isopropylmalate dehydrogenase wild type, P30125 (protein)
# chain: MSKNYHIAVLPGDGIGPEVMTQALKVLDAVRNRFAMRITTSHYDVGGAAIDNHGQPLPPATVEGCEQADAVLFGSVGGPKWEHLPPDQQPERGALLPLRKHFKLFSNLRPAKLYQGLEAFCPLRADIAANGFDILCVRELTGGIYFGQPKGREGSGQYEKAFDTEVYHRFEIERIARIAFESARKRRHKVTSIDKANVLQSSILWREIVNEIATEYPDVELAHMYIDNATMQLIKDPSQFDVLLCSNLFGDILSDECAMITGSMGMLPSASLNEQGFGLYEPAGGSAPDIAGKNIANPIAQILSLALLLRYSLDADDAACAIERAINRALEEGIRTGDLARGAAAVSTDEMGDIIARYVAEGV
# B2: Tetracycline repressor protein class D wild type, P0ACT4 (protein)
# chain: MARLNRESVIDAALELLNETGIDGLTTRKLAQKLGIEQPTLYWHVKNKRALLDALAVEILARHHDYSLPAAGESWQSFLRNNAMSFRRALLRYRDGAKVHLGTRPDEKQYDTVETQLRFMTENGFSLRDGLYAISAVSHFTLGAVLEQQEHTAALTDRPAAPDENLPPLLREALQIMDSDDGEQAFLHGLESLIRGFEVQLTALLQIVGGDKLIIPFC
# B3: Ornithine carbamoyltransferase subunit I wild type, P04391 (protein)
# chain: MSGFYHKHFLKLLDFTPAELNSLLQLAAKLKADKKSGKEEAKLTGKNIALIFEKDSTRTRCSFEVAAYDQGARVTYLGPSGSQIGHKESIKDTARVLGRMYDGIQYRGYGQEIVETLAEYASVPVWNGLTNEFHPTQLLADLLTMQEHLPGKAFNEMTLVYAGDARNNMGNSMLEAAALTGLDLRLVAPQACWPEAALVTECRALAQQNGGNITLTEDVAKGVEGADFIYTDVWVSMGEAKEKWAERIALLREYQVNSKMMQLTGNPEVKFLHCLPAFHDDQTTLGKKMAEEFGLHGGMEVTDEVFESAASIVFDQAENRMHTIKAVMVATLSK
# B4: Lectin wild type, P16404 (protein)
# chain: MATYKLCSVLALSLTLFLLILNKVNSVETISFSFSEFEPGNDNLTLQGAALITQSGVLQLTKINQNGMPAWDSTGRTLYAKPVHIWDMTTGTVASFETRFSFSIEQPYTRPLPADGLVFFMGPTKSKPAQGYGYLGIFNNSKQDNSYQTLGVEFDTFSNPWDPPQVPHIGIDVNSIRSIKTQPFQLDNGQVANVVIKYDASSKILHAVLVYPSSGAIYTIAEIVDVKQVLPEWVDVGLSGATGAQRDAAETHDVYSWSFQASLPETNDAVIPTSNHNTFAI
# B5: Ribonuclease HI wild type, P0A7Y4 (protein)
# chain: MLKQVEIFTDGSCLGNPGPGGYGAILRYRGREKTFSAGYTRTTNNRMELMAAIVALEALKEHCEVILSTDSQYVRQGITQWIHNWKKRGWKTADKKPVKNVDLWQRLDAALGQHQIKWEWVKGHAGHPENERCDELARAAAMNPTLEDTGYQVEV
# B6: Met repressor wild type, P0A8U6 (protein)
# chain: MAEWSGEYISPYAEHGKKSEQVKKITVSIPLKVLKILTDERTRRQVNNLRHATNSELLCEAFLHAFTGQPLPDDADLRKERSDEIPEAAKEIMREMGINPETWEY
# B7: Lactose operon repressor wild type, P03023 (protein)
# chain: MKPVTLYDVAEYAGVSYQTVSRVVNQASHVSAKTREKVEAAMAELNYIPNRVAQQLAGKQSLLIGVATSSLALHAPSQIVAAIKSRADQLGASVVVSMVERSGVEACKAAVHNLLAQRVSGLIINYPLDDQDAIAVEAACTNVPALFLDVSDQTPINSIIFSHEDGTRLGVEHLVALGHQQIALLAGPLSSVSARLRLAGWHKYLTRNQIQPIAEREGDWSAMSGFQQTMQMLNEGIVPTAMLVANDQMALGAMRAITESGLRVGADISVVGYDDTEDSSCYIPPLTTIKQDFRLLGQTSVDRLLQLSQGQAVKGNQLLPVSLVKRKTTLAPNTQTASPRALADSLMQLARQVSRLESGQ
# Conditions: whole UniProt chain shown
# [1] = Escherichia coli (strain K12), pH 7, 27 °C, Urea, Fluorescence, Potassium phosphate 50 mM, transition: 3, reversible: yes
# [2] = Escherichia coli (strain K12), pH 8.3, Thermal, DSC, borate 40 mM
# [3] = Erythrina corallodendron, pH 7.4, Thermal, DSC, Sodium phosphate 0.02 M, NaCl 0.15 M, reversible: yes
# [4] = Escherichia coli (strain K12), pH 3, Thermal, CD, glycine-HCl 10 mM, NaCl 0.1 M, reversible: yes
# [5] = Escherichia coli (strain K12), pH 3, Thermal, CD, glycine-HCl 10 mM, reversible: yes
# [6] = Escherichia coli (strain K12), pH 5.5, Thermal, CD, Sodium acetate 5 mM, KCl 50 mM, reversible: no
# [7] = Escherichia coli (strain K12), pH 5.5, Thermal, CD, Sodium acetate 20 mM, reversible: yes
# [8] = Escherichia coli (strain K12), pH 8, 25 °C, GdnHCl, CD, Potassium phosphate 20 mM, KCl 50 mM, reversible: yes
# [9] = Escherichia coli (strain K12), pH 8, 25 °C, GdnHCl, CD, Potassium phosphate 50 mM, KCl 50 mM, reversible: yes
# [10] = Escherichia coli (strain K12), pH 8, 25 °C, Urea, CD, Potassium phosphate 20 mM, KCl 50 mM, reversible: yes
# [11] = Escherichia coli (strain K12), pH 7, 25 °C, Thermal, DSC, Potassium phosphate 25 mM, KCl 100 mM, reversible: yes
# [12] = Escherichia coli (strain K12), pH 7, Thermal, DSC, Potassium phosphate 25 mM, KCl 100 mM, reversible: yes
protein,measurement,setting,value
B1,denaturant m value,[1],5.56 kcal/mol/M and 2.22 kcal/mol/M
same,unfolding free energy,[1],14.7 kcal/mol and 17.7 kcal/mol
same,unfolding enthalpy (van 't Hoff),"Escherichia coli (strain K12), pH 7, Thermal, Fluorescence, potassium phosphate 50 mM, DTT 1 mM, transition: 3, reversible: yes",15.4 kcal/mol and 17.8 kcal/mol
B2,denaturant midpoint (higher = more stable),"Escherichia coli, pH 7.5, 22 °C, Urea, CD, Tris-HCl 50 mM, NaCl 150 mM, reversible: yes(96%)",4.7 M
B3,Tm,[2],62.5 °C
same,unfolding enthalpy (calorimetric),[2],600 kcal/mol
B4,Tm,[3],61.7 °C
same,unfolding enthalpy (calorimetric),[3],320 kcal/mol
same,unfolding enthalpy (van 't Hoff),[3],151 kcal/mol
B5,Tm,"Escherichia coli (strain K12), pH 3, Thermal, CD, Gly-HCl buffer 10 mM, NaCl 0.1 M, reversible: yes",49.8 °C
same,Tm,[4],50.1 °C
same,unfolding enthalpy (van 't Hoff),[4],113 kcal/mol
same,Tm,[5],49.8 °C
same,unfolding enthalpy (van 't Hoff),[5],98.1 kcal/mol
same,Tm,[6],66 °C
same,heat capacity change of unfolding,[6],2.7 kcal/mol/K
same,unfolding enthalpy (van 't Hoff),[6],120 kcal/mol
same,Tm,[7],52 °C
same,unfolding enthalpy (van 't Hoff),[7],89 kcal/mol
same,Tm,"Escherichia coli (strain K12), pH 5.5, Thermal, CD, sodium acetate 20 mM, NaCl 0.1 M, reversible: yes",52 °C
same,denaturant midpoint (higher = more stable),[8],1.6 M
same,unfolding free energy,[8],7.2 kcal/mol
same,denaturant midpoint (higher = more stable),[9],1.18 M
same,unfolding free energy,[9],3.95 kcal/mol
same,denaturant midpoint (higher = more stable),[10],3.84 M
same,unfolding free energy,[10],7.4 kcal/mol
same,Tm,"Escherichia coli (strain K12), pH 8, Thermal, CD, Potassium phosphate 20 mM, KCl 50 mM, reversible: yes",55 °C
B6,heat capacity change of unfolding,[11],2.13 kcal/mol/K
same,unfolding free energy,[11],7.77 kcal/mol
same,Tm,[12],53.2 °C
same,heat capacity change of unfolding,[12],2.13 kcal/mol/K
same,unfolding enthalpy (calorimetric),[12],121 kcal/mol
same,unfolding enthalpy (van 't Hoff),[12],131 kcal/mol
B7,Tm,"Escherichia coli (strain K12), pH 7.4, Thermal, CD, phosphate 5 mM, reversible: no",53 °C
